Reference: article PMC2834481

Molecular target: squid Munc18-1 (squid)
Assay: ITC

Substance: synaptobrevin(77-96) peptide (from UniProt P63045 77-96)
- Kd: 13.5 µM

Substance: synaptobrevin(49-96) (from UniProt P63045 49-96) (domain or fragment)
- Kd: 13.3 µM
